From paper PMC6838200, “Polarisome scaffolder Spa2-mediated macromolecular condensation of Aip5 for actin polymerization” (Nature Communications, 2019) come the findings set out here.

In data set [1] the target is G-actin (monomeric actin used in microscale thermophoresis) (rabbit, UniProt P68135 1-377). In words: MST; 2 µM G-actin mixed 1:1 with Aip5 loop peptide (highest stock 2 mM); G-buffer with 0.05% Tween 20; 25 °C; Kd mode fit. The note with it: both partners purified.
Data set [2] concerns the molecule itself. In words: crystal structure; X-ray; sitting drop vapor diffusion at 20 °C; Aip5-C by SeMet-MAD, Aip5-C-3m by molecular replacement.

B1: Aip5 loop peptide (TSLAGGGFHM) (peptide)
peptide: TSLAGGGFHM
notes: also called loop containing peptide; peptides of Aip5 loop
For B1, the Kd (usually the equilibrium constant for the complex coming apart) in data set [1] came out at 99 ± 76 µM.

B2: Aip5-C-3m (L1150A, N1162A, S1165C) (domain or fragment, S. cerevisiae, UniProt P43597 1110-1233, looked up)
chain: DSTTQTTEQSKKNNDKPQDVITTSEIRKLNEKEPVYIYTSAAGGGFHMIPRTARLCTILTANRIPFTYRDLGTDDEARKVWKTFSKGRSLPGVVRGHNDLIGNWEEIEEANEDYKLRELIYDTI
notes: Aip5 (YFR016C), budding yeast, residues 1110-1233 with three point mutations; Homodimer in the crystal; also called triple mutant Aip5-C-3m; source: E. coli BL21 (DE3), purified
B2: the binding result in data set [2] is on record as “binds”.
